B1: Vesicle-associated membrane protein 7 (Mus musculus), P70280 (parent)
chain: MAILFAVVARGTTILAKHAWCGGNFLEVTEQILAKIPSENNKLTYSHGNYLFHYICQDRIVYLCITDDDFERSRAFSFLNEVKKRFQTTYGSRAQTALPYAMNSEFSSVLAAQLKHHSENKSLDKVMETQAQVDELKGIMVRNIDLVAQRGERLELLIDKTENLVDSSVTFKTTSRNLARAMCMKNIKLTIIIIIVSIVFIYIIVSLLCGGFTWPNCVKK

Variants of: B1
Details: with anr27_human ANKRD27, Q96NW4
anr27_human ANKRD27, Q96NW4, sequence (Q96NW4 whole entry): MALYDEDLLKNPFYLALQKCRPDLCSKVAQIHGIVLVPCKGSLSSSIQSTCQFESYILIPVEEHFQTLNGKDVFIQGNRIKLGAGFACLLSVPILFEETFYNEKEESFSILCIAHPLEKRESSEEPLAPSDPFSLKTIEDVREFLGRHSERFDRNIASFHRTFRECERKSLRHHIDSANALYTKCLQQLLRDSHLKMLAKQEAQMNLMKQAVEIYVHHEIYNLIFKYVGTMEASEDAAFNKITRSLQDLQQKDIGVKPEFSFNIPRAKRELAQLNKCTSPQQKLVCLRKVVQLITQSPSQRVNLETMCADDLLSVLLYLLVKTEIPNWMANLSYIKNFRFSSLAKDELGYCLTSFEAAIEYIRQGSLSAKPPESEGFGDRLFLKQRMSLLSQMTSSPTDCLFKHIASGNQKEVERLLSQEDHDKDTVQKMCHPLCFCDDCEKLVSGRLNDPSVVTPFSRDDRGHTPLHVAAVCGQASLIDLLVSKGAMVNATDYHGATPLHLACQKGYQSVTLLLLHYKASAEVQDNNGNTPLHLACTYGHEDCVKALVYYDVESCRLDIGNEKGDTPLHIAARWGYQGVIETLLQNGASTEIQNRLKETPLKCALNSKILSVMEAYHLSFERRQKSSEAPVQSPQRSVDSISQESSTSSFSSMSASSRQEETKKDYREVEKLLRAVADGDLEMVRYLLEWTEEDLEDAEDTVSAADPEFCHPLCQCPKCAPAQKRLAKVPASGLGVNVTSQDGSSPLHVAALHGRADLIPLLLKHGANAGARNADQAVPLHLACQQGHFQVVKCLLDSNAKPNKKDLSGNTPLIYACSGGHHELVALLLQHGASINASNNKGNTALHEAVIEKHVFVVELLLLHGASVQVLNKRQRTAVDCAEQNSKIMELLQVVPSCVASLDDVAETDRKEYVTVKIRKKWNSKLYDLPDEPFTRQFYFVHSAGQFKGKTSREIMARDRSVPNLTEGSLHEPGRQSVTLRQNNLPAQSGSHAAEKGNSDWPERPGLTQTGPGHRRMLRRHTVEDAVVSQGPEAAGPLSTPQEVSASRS

Row | Variant | effect of a mutation on the interaction
1 | MAILFAVVARGTTILAKHAWCGGNFLEVTEQILAKIPSENNKLTYSHGNYLFHYICQDRIVYLCITDDDFEASRAFSFLNEVKKRFQTTYGSRAQTALPYAMNSEFSSVLAAQLKHHSENKSLDKVMETQAQVDELKGIMVRNIDLVAQRGERLELLIDKTENLVDSSVTFKTTSRNLARAMCMKNIKLTIIIIIVSIVFIYIIVSLLCGGFTWPNCVKK [R72A] | disrupting interaction strength
2 | MAILFAVVARGTTILAKHAWCGGNFLEVTEQILAKIPSENNKLTYSHGNYLFHYICQDRIVYLCITDDAFFRDRAFSFLNEVKKRFQTTYGSRAQTALPYAMNSEFSSVLAAQLKHHSENKSLDKVMETQAQVDELKGIMVRNIDLVAQRGERLELLIDKTENLVDSSVTFKTTSRNLARAMCMKNIKLTIIIIIVSIVFIYIIVSLLCGGFTWPNCVKK [D69A;E71F;S73D] | disrupting interaction strength

Source: IntAct's records for PubMed 23104059
